Bridge positions count the residues as written; N and C are the ends. Square brackets hold non-standard residues; d marks the D form. Peptide text beside a SMILES is read from it. R8 = C=CCCCCCC[C@@](C)(N)C(=O)O; S5 = C=CCCC[C@](C)(N)C(=O)O

This series is described as follows: circular dichroism. The settings on record: aqueous, '0% TFE' (buffer not stated; general: 50 mM potassium phosphate pH 7 or water); pH ns; ns °C; 25-50 uM (general text). In general terms: CD spectra are sensitive to the conformation of chiral molecules.
As for `CCCC[C@H](NC(C)=O)C(=O)N1CCC[C@H]1C(=O)N[C@@H](CCCNC(=N)N)C(=O)N[C@@H](Cc1ccccc1)C(=O)N[C@]1(C)CCCCCCCCCCC[C@@](C)(C(=O)N[C@@H](CCC(N)=O)C(=O)N[C@@H](CC(N)=O)C(N)=O)NC(=O)[C@H](CC(C)C)NC(=O)[C@H](CC(C)C)NC(=O)[C@H](CCCNC(=N)N)NC(=O)[C@H](Cc2c[nH]c3ccccc23)NC(=O)[C@H](Cc2ccc(O)cc2)NC(=O)[C@H](CC(N)=O)NC1=O`, the helicity was determined as 61.6%.
For the compound Ac-MPRFMDYWEGLN-NH2, the helicity amounted to 7.5%.
Under `CC(=O)N[C@@H](CC(C)C)C(=O)N[C@H](C(=O)N[C@@H](Cc1ccccc1)C(=O)N[C@]1(C)CCCCCCC=CCCC[C@@](C)(C(=O)N[C@@H](CO)C(=O)N[C@@H](C)C(N)=O)NC(=O)[C@H](CC(C)C)NC(=O)[C@H](CCC(N)=O)NC(=O)[C@H](C)NC(=O)[C@H](Cc2c[nH]c3ccccc23)NC(=O)[C@H](Cc2ccc(O)cc2)NC(=O)[C@H](Cc2c[nH]cn2)NC1=O)[C@@H](C)O` stands 80.8%; under `CC(=O)N[C@H](C(=O)N[C@@H](CO)C(=O)N[C@@H](Cc1ccccc1)C(=O)N[C@]1(C)CCCCCCCCCCC[C@@](C)(C(=O)N2CCC[C@H]2C(N)=O)NC(=O)[C@H](CC(C)C)NC(=O)[C@H](CC(C)C)NC(=O)[C@H](CC(N)=O)NC(=O)[C@H](Cc2c[nH]c3ccccc23)NC(=O)[C@H](Cc2ccc(O)cc2)NC(=O)[C@H](CCC(N)=O)NC1=O)[C@@H](C)O`, 2.6%; under `CC(=O)N[C@@H](CCC(N)=O)C(=O)N[C@@H](CO)C(=O)N[C@]1(C)CCCC=CCCCC2(CCCC=CCCC[C@@](C)(C(=O)N[C@@H](CC(C)C)C(=O)N[C@@H](CC(C)C)C(=O)NC(C)(C)C(=O)N[C@@H](CCC(N)=O)C(=O)N[C@@H](CC(N)=O)C(N)=O)NC(=O)[C@H](Cc3c[nH]c4ccccc34)NC(=O)[C@H](CC(C)C)NC(=O)[C@H](CC(N)=O)NC2=O)NC(=O)[C@H](Cc2ccccc2)NC(=O)[C@H]([C@@H](C)O)NC(=O)[C@H](CCC(N)=O)NC1=O` (some centres unmarked), 0%.
Under `CC(=O)N[C@@H](CCC(N)=O)C(=O)N[C@@H](CO)C(=O)N[C@@H](CCC(N)=O)C(=O)N[C@@H](CCC(N)=O)C(=O)N[C@H](C(=O)N[C@@H](Cc1ccccc1)C(=O)N[C@]1(C)CCCCCCC=CCCC[C@@](C)(C(=O)N[C@@H](CCC(N)=O)C(N)=O)NC(=O)[C@H](CC(C)C)NC(=O)[C@H](CC(C)C)NC(=O)[C@H](CCCNC(=N)N)NC(=O)[C@H](Cc2c[nH]c3ccccc23)NC(=O)[C@H](CC(C)C)NC(=O)[C@H](CC(N)=O)NC1=O)[C@@H](C)O` (Ac-QSQQTF[R8]NLWRLL[S5]Q-NH2; staple 7-14) stands 77.8%.
Under `CC(=O)N[C@@H](CC(C)C)C(=O)N[C@H](C(=O)N[C@@H](Cc1ccccc1)C(=O)N[C@@H](CCC(=O)O)C(=O)N[C@@H](Cc1c[nH]cn1)C(=O)N[C@@H](Cc1ccc(O)cc1)C(=O)N[C@@H](Cc1c[nH]c2ccccc12)C(=O)N[C@@H](C)C(=O)N[C@@H](CCC(N)=O)C(=O)N[C@@H](CC(C)C)C(=O)N[C@H](C(=O)N[C@@H](CO)C(N)=O)[C@@H](C)O)[C@@H](C)O` stands -0.5%; under `CC(=O)N[C@@H](CCCNC(=N)N)C(=O)N[C@@H](CO)C(=O)N[C@@H](CCC(N)=O)C(=O)N[C@@H](CCC(N)=O)C(=O)N[C@H](C(=O)N[C@@H](Cc1ccccc1)C(=O)N[C@]1(C)CCCCCCC=CCCC[C@@](C)(C(=O)N[C@@H](CCC(N)=O)C(=O)N[C@@H](CC(N)=O)C(N)=O)NC(=O)[C@H](CC(C)C)NC(=O)[C@H](CC(C)C)NC(=O)[C@H](CCCNC(=N)N)NC(=O)[C@H](Cc2c[nH]c3ccccc23)NC(=O)[C@H](CC(C)C)NC(=O)[C@H](CC(N)=O)NC1=O)[C@@H](C)O` (Ac-RSQQTF[R8]NLWRLL[S5]QN-NH2; staple 7-14), 62.3%.

These data come from US9957299B2, “Peptidomimetic macrocycles” (AILERON THERAPEUTICS, INC., priority 2010, dated 2018).
